This data set concerns the molecule itself. The data set is described as follows: NMR solution structure.

B1: Mycobacterium tuberculosis NmtR (apo-state, homodimer) (natural protein)
chain: GHGVEGRNRPSAPLDSQAAAQVASTLQALATPSRLMILTQLRNGPLPVTDLAEAIGMEQSAVSHQLRVLRNLGLVVGDRAGRSIVYSLYDTHVAQLLDEAIYHSEHLHLGLSDRHPSAG
In the case of B1, the binding result is “binds”.
